According to publication PMC10365314, “Noncanonical contribution of microglial transcription factor NR4A1 to post-stroke recovery through TNF mRNA destabilization”:

Biological target: His-GST-NR4A1 (Mus musculus, UniProt P12813 1-601)
Experiment: EMSA; glutaraldehyde 0.2% added after binding; 10 mM HEPES pH 7.6, 50 mM KCl, 1 mM EDTA, 0.05% Triton X-100, 5% glycerol, 1 mM DTT, 40 U/ml RNasin; REMSA: 2 nM probe, room temperature 30 min; pull-down: 50 pmol probe, 250 ug extract, 4 C 3 h
Conditions: protein: recombinant; tags: His-GST; label: 5' biotin; single strand

Chain of His-GST-NR4A1 (P12813 whole entry): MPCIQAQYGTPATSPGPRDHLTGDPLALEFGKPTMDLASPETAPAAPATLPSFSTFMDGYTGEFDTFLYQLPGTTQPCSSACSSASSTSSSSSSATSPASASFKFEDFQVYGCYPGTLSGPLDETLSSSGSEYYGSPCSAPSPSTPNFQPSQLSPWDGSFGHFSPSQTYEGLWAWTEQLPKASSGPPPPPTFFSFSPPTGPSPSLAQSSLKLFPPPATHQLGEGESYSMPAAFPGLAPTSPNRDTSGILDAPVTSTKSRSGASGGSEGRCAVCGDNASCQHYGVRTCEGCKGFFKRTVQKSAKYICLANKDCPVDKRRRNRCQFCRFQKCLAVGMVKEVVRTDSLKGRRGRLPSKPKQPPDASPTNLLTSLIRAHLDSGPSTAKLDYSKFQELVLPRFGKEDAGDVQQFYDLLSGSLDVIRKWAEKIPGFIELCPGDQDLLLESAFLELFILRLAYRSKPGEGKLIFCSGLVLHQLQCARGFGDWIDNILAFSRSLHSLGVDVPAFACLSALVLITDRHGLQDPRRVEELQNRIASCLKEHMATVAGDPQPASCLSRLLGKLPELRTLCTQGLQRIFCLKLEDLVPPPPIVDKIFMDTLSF

## CGUCUCGGACUCGGACUGCU (ssRNA, m6A at positions 9 and 15 (as printed: CGUCUCGG(m6A)CUCGG(m6A)CUGCU)) [GGACU probe, m6A]
  binding result: binds
